According to patent publication US6525022B1, “Receptor specific atrial natriuretic peptides” (Genentech, Inc., priority 1993, dated 2003):
Blank lines part the entries; values can stand above or below the molecule they belong to. Bridges are numbered along the chain shown (N, C = ends). Where no end group is shown, it is not given here.

Experiments:
hNPR-C = biological target: T1, hNPR-C (Homo sapiens, UniProt P17342); assay: Competitive binding to membranes from cells expressing human NPR-C; parameters: expressed in transfected cells; conditions: FIG. 19, in comparison to rat ANP
T1 sequence (P17342 27-541): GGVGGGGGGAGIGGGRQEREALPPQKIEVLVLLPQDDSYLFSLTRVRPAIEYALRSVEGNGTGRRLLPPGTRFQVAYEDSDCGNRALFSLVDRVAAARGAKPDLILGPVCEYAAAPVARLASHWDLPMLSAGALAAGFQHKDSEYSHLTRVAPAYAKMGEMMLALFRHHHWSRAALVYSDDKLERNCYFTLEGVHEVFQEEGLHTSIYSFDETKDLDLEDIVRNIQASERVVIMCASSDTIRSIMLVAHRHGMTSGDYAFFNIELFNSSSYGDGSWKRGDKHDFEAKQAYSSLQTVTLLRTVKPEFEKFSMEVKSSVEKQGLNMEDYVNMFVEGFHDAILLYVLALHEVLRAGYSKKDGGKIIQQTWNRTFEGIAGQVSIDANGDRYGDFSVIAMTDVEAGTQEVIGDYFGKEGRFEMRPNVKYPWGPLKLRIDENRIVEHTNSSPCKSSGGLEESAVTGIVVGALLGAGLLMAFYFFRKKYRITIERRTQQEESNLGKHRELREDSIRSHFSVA
Description: Membrane preparation. Stable cell lines expressing human NPR-A (Lowe and Fendly, J. Biol. Chem. 267:21691-21697 (1992)) or human NPR-C (Cunningham et al., EMBO J 13, 2508-2515 (1994)) were removed from cell culture dishes with 0.5 mM EDTA in phosphate buffered saline (PBS), placed in ice cold PBS and centrifuged at 228 g for 10 min at 4° C. The cell pellets were resuspended in ice-cold homogenization buffer (50 mM HEPES, 1 mM EDTA, 1 mM DTT, 0.25 M sucrose, 0.7 mg/mL pepstatin A, 0.5 mg/mL leupeptin and 1 mM PMSF, pH 7.4). The cells were then homogenized using a Brinkman polytron at setting 5 for 30 sec. The homogenate was centrifuged at 400×g for 10 min at 4° C. The supernatant was collected and centrifuged at 100,000×g for 30 min at 4° C. […] Protein concentrations was determined using the Biorad protein assay with IgG as a standard.
Membrane competition binding assays. […] The plates were washed six times with PBS, then air dried prior to adding scintillant and counted in a Packard Topcount scintillation counter for 1 min/well. Binding was measured in duplicate for each concentration of competitor.
Data analysis. The competition binding curves and cGMP production dose responses were analyzed by the four-parameter logistic equation with the KaleidaGraph™ program (Synergy Software, PA) to obtain estimates of the IC50 or EC50 values. […]

[1] = biological target: T2, human natriuretic peptide receptor-A expressed in 293 cells (Homo sapiens, UniProt P16066); assay: cGMP production in 293 cells expressing hNPR-A; assay type: cell-based
T2 construct: expressed in transfected cells
T2 sequence (P16066 33-1061): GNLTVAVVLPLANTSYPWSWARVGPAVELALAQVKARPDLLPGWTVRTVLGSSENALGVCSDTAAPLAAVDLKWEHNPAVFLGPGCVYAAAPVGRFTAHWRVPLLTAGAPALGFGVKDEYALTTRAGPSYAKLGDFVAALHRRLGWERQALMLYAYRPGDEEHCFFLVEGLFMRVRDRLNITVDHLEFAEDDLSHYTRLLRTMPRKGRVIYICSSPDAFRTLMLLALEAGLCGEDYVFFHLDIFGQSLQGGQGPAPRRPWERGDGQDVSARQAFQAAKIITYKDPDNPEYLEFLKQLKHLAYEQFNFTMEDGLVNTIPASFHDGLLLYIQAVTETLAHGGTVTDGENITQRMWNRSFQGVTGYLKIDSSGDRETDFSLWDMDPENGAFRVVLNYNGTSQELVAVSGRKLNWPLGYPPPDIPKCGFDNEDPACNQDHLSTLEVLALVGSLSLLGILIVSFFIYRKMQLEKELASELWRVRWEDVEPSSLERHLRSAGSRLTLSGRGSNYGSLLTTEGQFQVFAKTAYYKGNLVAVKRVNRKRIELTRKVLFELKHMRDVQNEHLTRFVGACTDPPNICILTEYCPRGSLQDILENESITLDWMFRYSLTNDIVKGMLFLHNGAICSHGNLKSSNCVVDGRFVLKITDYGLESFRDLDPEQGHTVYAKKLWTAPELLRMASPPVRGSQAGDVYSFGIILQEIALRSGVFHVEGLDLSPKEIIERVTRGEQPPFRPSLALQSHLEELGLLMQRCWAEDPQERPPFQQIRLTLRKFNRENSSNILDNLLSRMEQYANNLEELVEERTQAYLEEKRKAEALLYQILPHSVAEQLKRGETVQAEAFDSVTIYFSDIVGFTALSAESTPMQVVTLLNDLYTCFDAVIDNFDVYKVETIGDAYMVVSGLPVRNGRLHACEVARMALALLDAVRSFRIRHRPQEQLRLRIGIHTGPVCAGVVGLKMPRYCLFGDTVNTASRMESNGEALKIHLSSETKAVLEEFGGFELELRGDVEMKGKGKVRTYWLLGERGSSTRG
Description: Stable 293 cell lines were maintained in glycine free F-12/Dulbecco's minimal essential medium (50/50, v/v) with 10% dialyzed fetal calf serum, 10 mM Hepes, […] of G418 (Geneticin, GIBCO/BRL), pH 7.2, in a humidified incubator at 37° C. with 7% CO2, 93% air. Cells were passaged using 136.8 mM NaCL, 2.6 mM KCl, 7.9 mM Na2HPO4, 1.4 mM KH2PO4, pH 7.2 (PBS) with 0.5 mM EDTA. For concentration-response experiments log phase cultures of 293 cell lines were passaged to 12 well plates at a density of 2.5×10^5 cells/well. After 48 hours cultures were approximately 50% confluent, and were used for stimulation of cGMP production. Peptide treatments were carried out essentially as described by Lowe and Fendly (1992). Briefly, dried peptide aliquots were resuspended in 0.1% (v/v) acetic acid to a stock concentration of 50 μM, and diluted to 1 μM in F-12/Dulbecco's minimal essential medium (50/50, v/v) with 25 mM Hepes, 0.1% (w/v) bovine serum albumin, 0.1 mM isobutylmethylxanthine at pH 7.2 (stimulation medium). Five-fold serial dilutions were prepared in stimulation medium using polypropylene tubes, then prewarmed to 37° C. before use. Cell culture medium was aspirated prior to adding 0.5 ml of stimulation medium plus peptides to monolayer cultures for 10 minutes at 37° C. Reactions were stopped by addition of 0.5 ml of ice cold 12% trichloroacetic acid to give a final volume of 1 ml. Culture plates were frozen on dry ice and stored at −20° C. prior to assay. For cGMP measurements samples were thawed at room temperature, and processed as described by Koller et al., Science 252:120-123 (1991), for cGMP radioimmunoassay (Biomedical Technologies, Inc). All stimulations were performed in triplicate, and samples were measured in duplicate for cGMP by radioimmumoassay. Predicted peptide concentrations were corrected based on quantitative amino acid analysis of duplicate samples from the same set of peptide aliquots used for the stimulation experiments.
Data analysis. The competition binding curves and cGMP production dose responses were analyzed by the four-parameter logistic equation with the KaleidaGraph™ program (Synergy Software, PA) to obtain estimates of the IC50 or EC50 values. The non linear least-squares curve fitting program SCATPLOT was used to analyze the competition binding curves according to a one-site or two-site binding model for competitor. A two-site binding model is reported when the fit to the data was statistically better (p<0.05) than a one-site fit.

[2] = biological target: T3, human natriuretic peptide clearance receptor-C (human, UniProt P17342 27-541); assay: analysis of variants in receptor binding
T3 construct: whole, on cells; also called hNPR-C; human NPR-C
T3 sequence (looked up): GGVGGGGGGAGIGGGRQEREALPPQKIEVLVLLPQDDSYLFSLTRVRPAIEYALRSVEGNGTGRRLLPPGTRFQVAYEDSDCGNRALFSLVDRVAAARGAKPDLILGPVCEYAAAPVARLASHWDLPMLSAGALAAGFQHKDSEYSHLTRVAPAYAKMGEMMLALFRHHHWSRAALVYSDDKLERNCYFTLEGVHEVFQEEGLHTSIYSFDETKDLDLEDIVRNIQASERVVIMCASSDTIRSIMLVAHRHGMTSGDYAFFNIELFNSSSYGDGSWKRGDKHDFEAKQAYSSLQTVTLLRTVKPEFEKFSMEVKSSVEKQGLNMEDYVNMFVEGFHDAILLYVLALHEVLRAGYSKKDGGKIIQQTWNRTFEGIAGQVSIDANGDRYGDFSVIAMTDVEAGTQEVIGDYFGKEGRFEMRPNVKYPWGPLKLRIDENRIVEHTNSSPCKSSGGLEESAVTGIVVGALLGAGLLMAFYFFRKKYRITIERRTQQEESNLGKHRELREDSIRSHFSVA

[3] = biological target: T4, human natriuretic peptide receptor-A (human, UniProt P16066 33-1061); assay: competition binding, Table I; tracer and receptor format not given
T4 construct: whole, on cells; also called hNPR-A; human NPR-A
T4 sequence (looked up): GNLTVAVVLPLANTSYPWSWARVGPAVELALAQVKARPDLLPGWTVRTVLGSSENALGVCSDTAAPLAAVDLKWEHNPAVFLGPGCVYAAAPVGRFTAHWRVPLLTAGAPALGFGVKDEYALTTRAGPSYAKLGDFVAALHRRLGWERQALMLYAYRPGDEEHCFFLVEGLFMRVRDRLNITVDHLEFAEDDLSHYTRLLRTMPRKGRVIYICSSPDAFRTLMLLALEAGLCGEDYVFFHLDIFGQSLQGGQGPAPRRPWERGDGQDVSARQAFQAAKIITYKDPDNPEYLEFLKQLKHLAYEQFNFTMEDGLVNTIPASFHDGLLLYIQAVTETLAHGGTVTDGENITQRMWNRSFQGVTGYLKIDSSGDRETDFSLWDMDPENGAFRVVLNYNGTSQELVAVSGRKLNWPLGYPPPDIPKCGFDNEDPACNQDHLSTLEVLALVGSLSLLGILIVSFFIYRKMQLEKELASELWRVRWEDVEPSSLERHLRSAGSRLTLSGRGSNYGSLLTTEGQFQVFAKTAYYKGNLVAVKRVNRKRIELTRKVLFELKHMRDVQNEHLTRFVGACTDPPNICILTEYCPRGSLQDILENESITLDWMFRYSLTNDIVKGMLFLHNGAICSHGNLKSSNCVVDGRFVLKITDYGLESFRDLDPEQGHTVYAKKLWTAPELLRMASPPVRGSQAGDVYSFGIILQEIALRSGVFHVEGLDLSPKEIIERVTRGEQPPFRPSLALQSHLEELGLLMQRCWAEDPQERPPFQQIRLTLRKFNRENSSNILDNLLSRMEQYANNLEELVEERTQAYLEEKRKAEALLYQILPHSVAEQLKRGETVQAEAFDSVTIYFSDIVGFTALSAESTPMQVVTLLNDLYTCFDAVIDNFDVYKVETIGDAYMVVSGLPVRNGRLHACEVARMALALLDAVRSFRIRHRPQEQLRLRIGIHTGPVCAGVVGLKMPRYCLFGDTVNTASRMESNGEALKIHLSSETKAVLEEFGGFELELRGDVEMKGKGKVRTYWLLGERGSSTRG

[4] = biological target: T3, human natriuretic peptide clearance …; assay: as above
[5] = biological target: human neutral endopeptidase 24.11 (human, UniProt P08473 2-750, limits assumed); assay: cell-based or functional assay
Chain of human neutral endopeptidase 24.11 (P08473 2-750 limits assumed): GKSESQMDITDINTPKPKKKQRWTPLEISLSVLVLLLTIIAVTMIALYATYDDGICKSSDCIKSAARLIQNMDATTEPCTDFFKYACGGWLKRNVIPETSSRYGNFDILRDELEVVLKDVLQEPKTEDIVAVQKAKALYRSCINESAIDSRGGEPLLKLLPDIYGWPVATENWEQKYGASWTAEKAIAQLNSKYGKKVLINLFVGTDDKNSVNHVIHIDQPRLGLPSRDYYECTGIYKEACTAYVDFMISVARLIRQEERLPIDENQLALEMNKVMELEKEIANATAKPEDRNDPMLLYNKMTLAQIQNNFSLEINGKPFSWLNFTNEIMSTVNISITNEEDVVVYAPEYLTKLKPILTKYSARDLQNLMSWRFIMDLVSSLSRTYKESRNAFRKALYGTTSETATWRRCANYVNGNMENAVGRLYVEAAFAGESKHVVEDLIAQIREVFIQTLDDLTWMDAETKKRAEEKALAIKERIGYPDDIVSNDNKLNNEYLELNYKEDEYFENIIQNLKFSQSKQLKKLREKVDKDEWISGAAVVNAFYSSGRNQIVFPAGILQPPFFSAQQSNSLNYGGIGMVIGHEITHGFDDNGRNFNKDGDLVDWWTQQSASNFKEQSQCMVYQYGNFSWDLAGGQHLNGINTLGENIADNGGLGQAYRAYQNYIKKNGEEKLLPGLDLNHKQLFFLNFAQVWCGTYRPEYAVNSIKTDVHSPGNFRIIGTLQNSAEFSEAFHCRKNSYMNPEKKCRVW

Molecule: Ser-Leu-Arg-Arg-Ser-Ser-Cys-Phe-Gly-Gly-Arg-Ile-Asp-Arg-Ile-Arg-Glu-Ala-Ser-Gly-Leu-Gly-Cys-Asn-Ser-Phe-Arg-Tyr (SEQ ID NO: 24), Cys^7-Cys^23 disulfide (SLRRSSCFGGRIDRIREASGLGCNSFRY; disulfide 7-23) [ANF 99]
Binding to human NPR-C membranes, competition for 125I-rat ANP (hNPR-C): reduced affinity
Potency in cGMP production compared with rat ANP [1]: equipotent
Stimulation of cGMP production (agonist efficacy) [1]: efficacious

fold reduction of affinity against wild type [2]: ~150 fold
B1: hANF(1-28) G16R (peptide)
peptide: SLRRSSCFGGRMDRIRAQSGLGCNSFRY
modifications: disulfide 7-23 (inferred)
notes: also called hANF G16R

IC50 [3]: 4.55 nM
IC50 [4]: 32.2 nM
Half-life at 0.075 µg/ml NEP [5]: 32.1 h
Half-life at 0.15 µg/ml NEP [5]: 4.48 h
B2: ANF 51 (peptide)
peptide: SLRRSSCFERPMDRIGAQSGLGCNSFRY
modifications: disulfide 7-23
notes: Cys7-Cys23 disulfide; also called hANF(1-28) G9E, G10R, R11P
